Earlier results on two molecules are cited in publication PMC3589724 (Scientific Reports, 2013).

Residue numbers refer to the chain shown, from its start. Numbers in names are those of the source.

Data set [1] concerns CaM. The conditions noted are these: in vitro, PC12B cells.
Data set [2] deals with CaM. The conditions noted are these: position Phe42.

B1: S41A Nm mutant: Nm point mutant S41A (literature) (protein, UniProt P06837 1-227, looked up, variant S41A)
Neuromodulin: MLCCMRRTKQVEKNDEDQKIEQDGVKPEDKAHKAATKIQAAFRGHITRKKLKGEKKGDAPAAEAEAKEKDDAPVADGVEKKEGDGSATTDAAPATSPKAEEPSKAGDAPSEEKKGEGDAAPSEEKAGSAETESAAKATTDNSPSSKAEDGPAKEEPKQADVPAAVTDAAATTPAAEDAATKAAQPPTETAESSQAEEEKDAVDEAKPKESARQDEGKEDPEADQEHA
B1: the “association of Nm with the membrane skeleton” value in the data set on PC12B cells is recorded as “inhibiting the association of Nm with the membrane skeleton of PC12B cells”. The “Ca^2+ sensitivity of interaction with CaM” value in the data set with CaM [1] was “insensitive to Ca^2+ concentrations in vitro”.

B2: Phe-to-Trp substitution: Nm with Phe-to-Trp substitution at Phe42 (literature) (protein, UniProt P06837 1-227, looked up, variant F42W)
Neuromodulin: B1 Neuromodulin with A41S, F42W
With B2, the “increase in Nm-CaM affinity on Phe-to-Trp substitution” value in the data set with CaM [2] was 10 fold.
